The text below walks through data of US20090070890A1 (AFFITECH, published 2009).

For one assay, the target named is T1, Recombinant ALCAM/Fc (UniProt Q13740 28-527, limits assumed).
T1 construct: also called CD166 antigen (Biacore)
T1 sequence (looked up): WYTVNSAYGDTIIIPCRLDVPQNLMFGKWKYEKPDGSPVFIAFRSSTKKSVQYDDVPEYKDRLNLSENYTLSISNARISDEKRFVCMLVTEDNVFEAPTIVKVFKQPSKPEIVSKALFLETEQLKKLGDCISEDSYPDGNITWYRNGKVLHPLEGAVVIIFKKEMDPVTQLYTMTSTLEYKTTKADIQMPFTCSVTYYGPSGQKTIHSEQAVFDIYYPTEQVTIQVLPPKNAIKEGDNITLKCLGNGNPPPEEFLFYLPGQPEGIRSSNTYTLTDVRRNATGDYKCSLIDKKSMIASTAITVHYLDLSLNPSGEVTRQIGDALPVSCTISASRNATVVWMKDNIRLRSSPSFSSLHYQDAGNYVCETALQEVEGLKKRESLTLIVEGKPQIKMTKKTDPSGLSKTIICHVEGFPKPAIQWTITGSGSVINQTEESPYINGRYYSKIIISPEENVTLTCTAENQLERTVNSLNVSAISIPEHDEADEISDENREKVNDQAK
Description: Biacore T100; ALCAM/Fc (250 RU) amine-coupled to a CM5 chip; Fab at 3.9 to 125 nM; heterogeneous ligand model; Fab, not IgG; ALCAM/Fc on the chip. As for the experimental part:
Binding affinity of EJ212/007-Cl2-5 Fab fragments to the CD166 antigen was measured by Biacore analysis. Recombinant ALCAM/Fc (250RU) was immobilized by amine coupling to a CM5 chip. A range of concentrations of the Fab antibody, from 3.9 to 125 nM (nanomolar), were run over the chip. The binding affinity, expressed as the Kd, was calculated using the Heterogen ligand binding model in the Biacore T100 Evaluation software.

In assay [1] the target is T2, human recombinant CD166-Fc (R&D systems), complete extracellular domain (human, UniProt Q13740 28-527).
T2 construct: extracellular domain; Bought reagent; also called recombinant CD166-Fc antigen; human CD166-Fc; not shown: Fc part of the commercial chimera, not described
T2 sequence (looked up): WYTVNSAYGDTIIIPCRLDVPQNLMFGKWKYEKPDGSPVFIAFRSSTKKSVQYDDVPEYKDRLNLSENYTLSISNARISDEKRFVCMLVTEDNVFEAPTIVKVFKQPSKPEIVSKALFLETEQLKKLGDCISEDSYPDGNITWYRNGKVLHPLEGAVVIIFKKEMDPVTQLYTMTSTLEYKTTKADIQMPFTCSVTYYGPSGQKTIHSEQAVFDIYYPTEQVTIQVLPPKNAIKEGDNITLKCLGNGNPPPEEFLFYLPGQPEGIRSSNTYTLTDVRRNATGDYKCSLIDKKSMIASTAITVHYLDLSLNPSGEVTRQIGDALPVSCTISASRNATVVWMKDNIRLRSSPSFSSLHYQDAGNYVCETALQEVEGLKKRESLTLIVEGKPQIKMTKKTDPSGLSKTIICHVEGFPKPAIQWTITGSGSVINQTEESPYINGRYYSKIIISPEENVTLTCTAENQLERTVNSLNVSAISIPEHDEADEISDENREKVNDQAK
Nature of the assay: ELISA, plate coated with 10 ug/ml CD166-Fc, detection with anti-kappa-HRP and ABTS, absorbance at 405 nm. The protocol:
Binding of the EJ212/007-Cl2-5 IgG to the CD166 antigen was tested in ELISA. An ELISA plate was coated overnight with 10 μg/ml of a commercially available recombinant CD166-Fc antigen (R&D systems), CD166 d1-5/Fc or CD166 d1-3/Fc. An IgG with irrelevant binding specificity was added to the ELISA as a negative control. After washing with PBS/0.05% Tween the plate was incubated for 1 hour with a dilution series of EJ212/007-Cl2-5 IgG ranging from 10 to 0.16 μg/ml. Detection of the bound IgG was done by incubation for 1 hour with 1 μg/ml anti-kappa-HRP and 15 minutes with the 1-step ABTS substrate (Pierce). The absorbance was measured at 405 nm.

Assay [2] addresses T3, CD166 (ALCAM, activated leukocyte cell adhesion molecule), native, of human tumor cell lines (human, UniProt Q13740 28-583).
T3 construct: whole, on cells; The antigen was identified as CD166 by mass spectrometry of protein from PM-1 cells; also called CD166 antigen; MEMD
T3 sequence (looked up): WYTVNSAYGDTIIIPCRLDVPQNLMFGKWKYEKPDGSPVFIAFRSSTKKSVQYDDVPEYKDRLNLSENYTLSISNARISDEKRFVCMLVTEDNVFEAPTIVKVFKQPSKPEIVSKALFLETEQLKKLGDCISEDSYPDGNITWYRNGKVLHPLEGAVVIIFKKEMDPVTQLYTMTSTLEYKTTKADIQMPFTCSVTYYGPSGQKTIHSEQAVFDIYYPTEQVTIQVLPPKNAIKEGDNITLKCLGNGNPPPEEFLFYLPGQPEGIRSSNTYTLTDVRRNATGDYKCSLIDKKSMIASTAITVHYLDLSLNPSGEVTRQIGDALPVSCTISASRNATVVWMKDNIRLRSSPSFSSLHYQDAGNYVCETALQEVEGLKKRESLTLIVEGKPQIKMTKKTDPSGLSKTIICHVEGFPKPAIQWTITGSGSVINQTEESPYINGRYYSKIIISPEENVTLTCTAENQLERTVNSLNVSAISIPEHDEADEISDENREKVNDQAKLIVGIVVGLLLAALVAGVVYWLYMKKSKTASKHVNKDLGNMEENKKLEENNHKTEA
Nature of the assay: western blot, non-reducing SDS-PAGE, probed with EJ212/007-Cl2-5 IgG and anti-human IgG-HRP. The text has this: Membrane proteins were isolated from two EJ212/007-Cl2-5 antigen-positive cell lines (PM-1 and DU-145; determined by FACS analysis) and concentrated by ultra-centrifugation. The membranes were resuspended in detergent (CHAPS/DOC) which was then removed from the sample by using Detergent Removing Resin (Pierce) in column format. The purified membrane proteins before and after sample concentration, and the cytosolic fraction were subsequently analysed by SDS-PAGE/Western under non-reducing conditions. The blot was probed with the EJ212/007-Cl2-5 IgG and corresponding secondary anti-human IgG coupled to HRP in order to visualise the proteins by chemiluminescence.

The target of assay [3] is T4, mouse recombinant CD166-Fc (R&D systems) (mouse, UniProt Q61490 28-527).
T4 construct: Bought reagent; also called mouse CD166-Fc; not shown: Fc part of the commercial chimera, not described
T4 sequence (looked up): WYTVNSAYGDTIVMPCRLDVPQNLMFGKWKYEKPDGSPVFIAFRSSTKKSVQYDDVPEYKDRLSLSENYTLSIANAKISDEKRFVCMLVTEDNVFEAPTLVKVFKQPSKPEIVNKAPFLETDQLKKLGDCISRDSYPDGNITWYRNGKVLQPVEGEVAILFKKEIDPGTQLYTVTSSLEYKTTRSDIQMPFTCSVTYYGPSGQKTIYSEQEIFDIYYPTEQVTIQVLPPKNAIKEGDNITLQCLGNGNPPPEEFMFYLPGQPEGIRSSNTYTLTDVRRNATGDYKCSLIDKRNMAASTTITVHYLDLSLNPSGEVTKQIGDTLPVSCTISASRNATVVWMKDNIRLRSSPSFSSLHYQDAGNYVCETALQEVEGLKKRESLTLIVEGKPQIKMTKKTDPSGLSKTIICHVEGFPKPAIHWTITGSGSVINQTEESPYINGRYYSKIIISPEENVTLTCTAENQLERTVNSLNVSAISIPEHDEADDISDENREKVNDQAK
Nature of the assay: ELISA on coated mouse CD166-Fc.

Assay [4] has as its target T3, CD166 (ALCAM, activated leukocyte cell …). Description: photo-cross-linking of linker-coupled scFv to PM-1 cells, His-column and streptavidin-bead purification, blot detected with streptavidin-HRP. The protocol:
PM-1 cells (2×10⁶) were incubated with 25 μg of the above linker coupled scFv. After washing with PBS the cells were exposed to UV light at 302 nm. This was followed by lysis of the cells by NP-40 in the presence of DNAsel. After incubation on ice SDS was added and the samples were loaded on a His-column. The column was washed in the presence of NP-40 and SDS and the protein of interest was eluted with 5 mM DTT in the same detergents. The eluted sample was then mixed with streptavidin beads and the beads were washed in the presence of SDS. The SDS concentrations was increased and the beads were incubated at 90° C. for five minutes. The supernatant was then run on a 7% SDS-PAGE, transferred to a PVDF membrane and detected with streptavidin-HRP.

B1: EJ212/007-Cl2-5 Fab (Fab, V domains shown)
VH: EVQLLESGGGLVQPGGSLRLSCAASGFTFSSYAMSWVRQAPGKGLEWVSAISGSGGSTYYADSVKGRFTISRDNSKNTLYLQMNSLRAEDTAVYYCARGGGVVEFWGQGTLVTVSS
VL: DIRMTQSPSFLSASVGDRVTITCRASQDISSYFAWYQQKPGKAPKLLIYAASTLRSGVPSRFSGSGSGTDFTLTISSLQPEDFATYYCQQSYSTPRITFGQGTRLEIK
notes: Fab format of EJ212/007-Cl2-5; The CH1 and CL of the Fab, and how it was made, are not described; also called EJ212/007-Cl2-5 Fab fragments; Fab antibody
On to B1, for which the Kd with Recombinant ALCAM/Fc amounted to 29 nM.

B2: EJ212/007-Cl2-5 IgG (antibody)
heavy: not shown
light: DIRMTQSPSFLSASVGDRVTITCRASQDISSYFAWYQQKPGKAPKLLIYAASTLRSGVPSRFSGSGSGTDFTLTISSLQPEDFATYYCQQSYSTPRITFGQGTRLEIKRTVAAPSVFIFPPSDEQLKSGTASVVCLLNNFYPREAKVQWKVDNALQSGNSQESVTEQDSKDSTYSLSSTLTLSKADYEKHKVYACEVTHQGLSSPVTKSFNRGEC
notes: Human IgG1/kappa; also called IgG form of EJ212/007-Cl2-5; EJ212/007-Cl2-5 IgG antibody
Regarding B2, the binding result in assay [1], in assay [2] and in assay [3] was “binds” in each case.

B3: scFv EJ212/007-Cl2-5 T68C (scFv, name in Kabat numbering)
scFv: EVQLLESGGGLVQPGGSLRLSCAASGFTFSSYAMSWVRQAPGKGLEWVSAISGSGGSTYYADSVKGRFCISRDNSKNTLYLQMNSLRAEDTAVYYCARGGGVVEFWGQGTLVTVSSKLSGSASAPKLEEGEFSEARVDIRMTQSPSFLSASVGDRVTITCRASQDISSYFAWYQQKPGKAPKLLIYAASTLRSGVPSRFSGSGSGTDFTLTISSLQPEDFATYYCQQSYSTPRITFGQGTRLEIK
modifications: Mts-Atf-LC-Biotin linker (Pierce 33083) coupled to the introduced Cys 68 (Kabat)
notes: Expressed in E. coli TG1; also called EJ212/007-Cl2-5 scFv (His-tagged) with a cysteine introduced by point mutation at position 68 (Kabat, RFCIS); linker coupled scFv
B3: in assay [4], the binding result is reported as “binds”.
